Experimental data as given in the supplement of paper PMC9233669.
Variants at the floor of the assay were thinned out.

Columns and labels:
biotinyl-Ile-oxazolone = experiment: self-aminoacylation, catalytic enhancement (BIO) (fold over background); higher = more active; k-Seq, kA / k0A0; sequences stand for … in GGGAAUGGAUCCACAUCUACGAAUUC…UUCACUGCAGACUUGACGAAGCUG
Method in brief: (§1)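 Each biotinyl-aminoacyl-oxazolone, at 2–1250 μM, was incubated with mutagenized RNA pools (0.43 μM) carrying a 21-nt variable region. The 50 μL reactions contained HEPES/NaCl/KCl/MgCl2/CaCl2 buffer with 5% acetonitrile at pH 6.9–7.0 and ran for 90 minutes at room temperature. After streptavidin capture, RNA was measured by qPCR in triplicate and by Illumina sequencing, and catalytic enhancement was calculated as median kA over the uncatalyzed rate from a pseudo-first-order fit of per-sequence fraction reacted.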

biotinyl-Val-oxazolone = experiment: self-aminoacylation, catalytic enhancement (BVO) (fold over background); higher = more active; k-Seq, kA / k0A0; sequences stand for … in GGGAAUGGAUCCACAUCUACGAAUUC…UUCACUGCAGACUUGACGAAGCUG
Method in brief: as §1

biotinyl-Leu-oxazolone = experiment: self-aminoacylation, catalytic enhancement (BLO) (fold over background); higher = more active; k-Seq, kA / k0A0; sequences stand for … in GGGAAUGGAUCCACAUCUACGAAUUC…UUCACUGCAGACUUGACGAAGCUG
Method in brief: as §1

biotinyl-Phe-oxazolone = experiment: self-aminoacylation, catalytic enhancement (BFO) (fold over background); higher = more active; k-Seq, kA / k0A0; sequences stand for … in GGGAAUGGAUCCACAUCUACGAAUUC…UUCACUGCAGACUUGACGAAGCUG
Method in brief: as §1

biotinyl-Trp-oxazolone = experiment: self-aminoacylation, catalytic enhancement (BWO) (fold over background); higher = more active; k-Seq, kA / k0A0; sequences stand for … in GGGAAUGGAUCCACAUCUACGAAUUC…UUCACUGCAGACUUGACGAAGCUG
Method in brief: as §1

biotinyl-Met-oxazolone = experiment: self-aminoacylation, catalytic enhancement (BMO) (fold over background); higher = more active; k-Seq, kA / k0A0; sequences stand for … in GGGAAUGGAUCCACAUCUACGAAUUC…UUCACUGCAGACUUGACGAAGCUG
Method in brief: as §1

Sequence	self-aminoacylation (biotinyl-Ile-oxazolone)	self-aminoacylation (biotinyl-Val-oxazolone)	self-aminoacylation (biotinyl-Leu-oxazolone)	self-aminoacylation (biotinyl-Phe-oxazolone)	self-aminoacylation (biotinyl-Trp-oxazolone)	self-aminoacylation (biotinyl-Met-oxazolone)
CUAAUUCAAACAAUCGCUCUG [Fam1A.1 aminoacylation ribozyme variant]	0.628	0.653	0.527	0.713	0.67	0.668
CUAAUUCAAACAAUCGGUCAG [Fam1A.1 aminoacylation ribozyme variant]	0.602	0.546	0.566	1.46	0.765	0.583
CUAAUUCAAACAAUCGGUCCG [Fam1A.1 aminoacylation ribozyme variant]	0.553	0.539	0.732	0.604	0.513	0.575
CUAAUUCAAACAAUCGGUCUA [Fam1A.1 aminoacylation ribozyme variant]	0.612	0.593	0.497	1.65	0.635	0.549
CUAAUUCAAACCAUCGGUCUG [Fam1A.1 aminoacylation ribozyme variant]	0.967	0.848	0.949	0.795	0.589	0.817
CUAAUUCAAACUAUCGGUCUG [Fam1A.1 aminoacylation ribozyme variant]	0.978	0.936	0.938	1.1	0.685	1.09
CUAAUUCAAAGAAUCGGUCUG [Fam1A.1 aminoacylation ribozyme variant]	0.805	0.842	0.806	0.767	0.78	0.742
CUAAUUCAUACAAUCGGUCUG [Fam1A.1 aminoacylation ribozyme variant]	0.767	0.77	0.594	0.621	0.52	0.637
CUAAUUCUAACAAUCGGUCUG [Fam1A.1 aminoacylation ribozyme variant]	0.751	0.714	0.624	0.731	0.474	0.652
CUAAUUGAAACAAUCGGUCUG [Fam1A.1 aminoacylation ribozyme variant]	0.78	0.775	0.752	0.706	0.64	0.944
CUACACUUCAAGCAAUCGGUA [Fam1B.1 aminoacylation ribozyme variant]	0.739	0.65	0.755	1.37	0.846	0.709
CUACACUUCAAGCAAUCGGUU [Fam1B.1 aminoacylation ribozyme variant]	1.29	1.27	1.46	9.78	7.05	1.47
CUACACUUCAGGCAAUCGGUC [Fam1B.1 aminoacylation ribozyme variant]	1	1.01	0.97	1.49	0.839	1.01
CUACACUUCCAGCAAUCGGUC [Fam1B.1 aminoacylation ribozyme variant]	1.07	1.07	1.1	0.865	0.707	0.787
CUACAUAAAACAAUCGGUCUG [Fam1A.1 aminoacylation ribozyme variant]	0.808	0.799	0.738	0.674	0.539	0.934
CUACAUCAAACAAUCCGUCUG [Fam1A.1 aminoacylation ribozyme variant]	0.905	0.877	0.755	0.983	0.615	0.759
CUACAUCAAACAAUCGGUCUA [Fam1A.1 aminoacylation ribozyme variant]	0.669	0.922	0.58	1.61	0.755	0.802
CUACAUCGAACAAUCGGUCUG [Fam1A.1 aminoacylation ribozyme variant]	0.909	0.942	0.946	1.04	1.17	0.922
CUACAUGAAACAAUCGGUCUG [Fam1A.1 aminoacylation ribozyme variant]	0.828	0.803	0.721	0.716	0.772	0.868
CUACCUCAAACAAACGGUCUG [Fam1A.1 aminoacylation ribozyme variant]	0.919	1.03	1.08	1.33	0.615	0.85
CUACCUCAAACAAUAGGUCUG [Fam1A.1 aminoacylation ribozyme variant]	0.959	1	0.846	1.08	0.691	0.838
CUACCUCAAACAAUCGGACUG [Fam1A.1 aminoacylation ribozyme variant]	0.872	0.833	0.614	1.27	1.05	0.915
CUACCUCAAACAAUCGGUCGG [Fam1A.1 aminoacylation ribozyme variant]	1.28	1.25	1.55	1.56	1.78	1.5
